Measured values reported in patent publication US20250145684A1.
Where two headings read alike, the source gives them in different places.

Molecular target: HLA-B*08:01 (human)
Test: UV peptide exchange ELISA

Binder	peptide exchange yield	peptide exchange yield (remark: other sources report otherwise)
FAFEKLIQF (modifications not checked) [… (SEQ ID NO: 101)]	50 to 75%	–
EPVTKAEM [EPVTKAEM (SEQ ID NO: 97)]	–	50 to 75%
